# Columns and labels:
# [1] = biological target: T1, GFP-fused huCB1-SMALP (human, UniProt P21554 1-472); assay: flow cytometry, yeast-displayed Fab, 10 nM CB1 SMALP
# T1 construct: Human CB1 fused to GFP in styrene maleic acid lipoparticles, made as in Luna et al. 2018; also called huCB1-GFP-SMALP; GFP-tagged huCB1-SMALP; not shown: GFP fused to huCB1
# [2] = biological target: T1, GFP-fused huCB1-SMALP; assay: flow cytometry, yeast-displayed Fab, 5 nM CB1 SMALP
# [3] = biological target: T2, Empty ND; assay: flow cytometry, yeast-displayed Fab, 50 nM Empty ND
# T2 construct: It carries no receptor; the scaffold is its only protein; also called empty nanodisc
# [4] = biological target: T3, His-tagged huCB1-ND (human, UniProt P21554 99-414, limits assumed); assay: flow cytometry, yeast-displayed Fab, 0.5 nM CB1 ND
# T3 construct: The real construct may be truncated or engineered; also called CB1-nanodisc; not shown: histidine purification tag
# T3 sequence (P21554 99-414 limits assumed): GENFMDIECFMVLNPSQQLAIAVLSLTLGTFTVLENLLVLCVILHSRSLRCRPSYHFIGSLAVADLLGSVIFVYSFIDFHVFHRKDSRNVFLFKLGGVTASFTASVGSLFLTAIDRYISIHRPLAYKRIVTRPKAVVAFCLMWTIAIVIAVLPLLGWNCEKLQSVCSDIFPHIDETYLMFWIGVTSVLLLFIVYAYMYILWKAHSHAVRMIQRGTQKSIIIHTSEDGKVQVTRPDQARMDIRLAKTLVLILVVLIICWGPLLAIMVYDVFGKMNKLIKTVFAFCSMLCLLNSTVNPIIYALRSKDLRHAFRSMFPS
# T1 sequence (P21554 whole entry, the tested form may be a part): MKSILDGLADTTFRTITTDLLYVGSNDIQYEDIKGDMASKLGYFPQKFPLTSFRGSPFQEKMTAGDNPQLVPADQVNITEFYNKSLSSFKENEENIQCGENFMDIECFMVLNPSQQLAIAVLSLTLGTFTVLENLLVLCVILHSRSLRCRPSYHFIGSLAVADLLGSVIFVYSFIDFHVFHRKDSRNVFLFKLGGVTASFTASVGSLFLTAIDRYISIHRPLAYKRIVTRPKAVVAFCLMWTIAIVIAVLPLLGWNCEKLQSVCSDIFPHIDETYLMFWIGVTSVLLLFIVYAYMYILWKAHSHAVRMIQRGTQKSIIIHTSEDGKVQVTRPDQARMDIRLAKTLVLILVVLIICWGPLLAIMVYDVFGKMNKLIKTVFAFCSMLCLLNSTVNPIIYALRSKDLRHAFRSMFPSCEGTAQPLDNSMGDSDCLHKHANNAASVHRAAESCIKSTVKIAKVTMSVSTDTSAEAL
Binder,relative binding fold change compared to LIBC523797-1(Fab) [1] [fold],relative binding fold change compared to LIBC523797-1(Fab) [2] [fold],relative binding fold change compared to LIBC523797-1(Fab) [3] [fold],relative binding fold change compared to LIBC523797-1(Fab) [4] [fold]
"LIBC674153-1 (Fab on yeast) (Fab, V domains shown, Clone of the Fab-yeast libraries) VH: QVQLQESGPGLVKPSQTLSLTCTVSGGSIRRGGDYWSWIRQHPGKGLEWIGHVYYTGSTAYNPSFRGRVRISVNTYKNQFSLKLSSVTAADTAVYYCARGYDTSGYSYYYYGLDVWGQGTTVTVSS VL: not shown",2.62,1.35,0.33,1.83
"LIBC674276-1 (Fab on yeast) (Fab, V domains shown, Clone of the Fab-yeast libraries) VH: QVQLQESGPGLVKPSQTLSLTCTVSGGSIRRGGDYWSWIRQHPGKGLEWIGHVYYTGSTTYNPNFKGRVRISVNTYKNQFSLKLSSVTAADTAVYYCARGYDASGYSYYYYGLDVWGQGTTVTVSS VL: not shown",2.06,1.17,0.51,2.04
"LIBC674257-1 (Fab on yeast) (Fab, V domains shown, Clone of the Fab-yeast libraries) VH: QVQLQESGPGLVKPSQTLSLTCTVSGGSIRRGGDYWSWIRQHPGKGLEWIGHIYYTGQTKYNPSLRGRVRISVNTYKNQFSLKLSSVTAADTAVYYCARGYDISGYSYYYYGLDVWGQGTTVTVSS VL: not shown",3.34,1.19,0.73,1.86
"LIBC673972-1 (Fab on yeast) (Fab, V domains shown, Clone of the Fab-yeast libraries) VH: QVQLQESGPGLVKPSQTLSLTCTVSGGSIRRGGDYWSWIRQHPGKGLEWIGHIYYTGQTAYNPNLRNRVRISVNTYKNQFSLKLSSVTAADTAVYYCARGYDASGYSYYYYGLDVWGQGTTVTVSS VL: not shown",2.46,1.46,0.4,0.63
"LIBC674090-1 (Fab on yeast) (Fab, V domains shown, Clone of the Fab-yeast libraries) VH: QVQLQESGPGLVKPSQTLSLTCTVSGGSIRRGGDYWSWIRQHPGKGLEWIGHIYYAGSTAYNPNFRGRVRISVNTYKNQFSLKLSSVTAADTAVYYCARGYDTSGYSYYYYGLDVWGQGTTVTVSS VL: DIVMTQSPLSLPVTPGEPASISCRSSQSLLHRSGYNYLDWYLQKPGQSPQLLIYQGSNRASGVPDRFSGSGSGTDFTLKISRVEAEDVGVYYCMQSLQTPRTFGQGTKVEIKR",2.85,1.2,0.99,1.35
"LIBC674035-1 (Fab on yeast) (Fab, V domains shown, Clone of the Fab-yeast libraries) VH: QVQLQESGPGLVKPSQTLSLTCTVSGGSIRRGGDYWSWIRQHPGKGLEWIGHIYYAGQTKYNPSFKNRVRISVNTYKNQFSLKLSSVTAADTAVYYCARGYDISGYSYYYYGLDVWGQGTTVTVSS VL: not shown",2.74,1.29,0.56,0.52
"LIBC673965-1 (Fab on yeast) (Fab, V domains shown, Clone of the Fab-yeast libraries) VH: QVQLQESGPGLVKPSQTLSLTCTVSGGSIRRGGDYWSWIRQHPGKGLEWIGHVYYTGQTAYNPSLRGRVRISVNTYKNQFSLKLSSVTAADTAVYYCARGYDTSGYSYYYYGLDVWGQGTTVTVSS VL: not shown",2.5,1.3,0.43,0.65
"LIBC674043-1 (Fab on yeast) (Fab, V domains shown, Original clone of the Fab-yeast libraries, without the R149S reversion) VH: QVQLQESGPGLVKPSQTLSLTCTVSGGSIRRGGDYWSWIRQHPGKGLEWIGHIYYTGQTTYNPNFKGRVRISVNTYKNQFSLKLSSVTAADTAVYYCARGYDASGYSYYYYGMDVWGQGTTVTVSR VL: not shown",3.23,1.2,0.75,1.85
"LIBC674024-1 (Fab on yeast) (Fab, V domains shown, Clone of the Fab-yeast libraries) VH: QVQLQESGPGLVKPSQTLSLTCTVSGGSIRRGGDYWSWIRQHPGKGLEWIGHVYQTGSTKYNPSFKNRVRISVNTYKNQFSLKLSSVTAADTAVYYCARGYDVSGYSYYYYGLDVWGQGTTVTVSS VL: not shown",2.39,1.24,0.55,0.49
"LIBC674235-1 (Fab on yeast) (Fab, V domains shown, Clone of the Fab-yeast libraries) VH: QVQLQESGPGLVKPSQTLSLTCTVSGGSIRRGGDYWSWIRQHPGKGLEWIGHVYYAGSTTYNPSLKSRVRISVNTYKNQFSLKLSSVTAADTAVYYCARGYDVSGYSYYYYGLDVWGQGTTVTVSS VL: not shown",2.05,1.3,0.72,1.28
"LIBC674214-1 (Fab on yeast) (Fab, V domains shown, Clone of the Fab-yeast libraries) VH: QVQLQESGPGLVKPSQTLSLTCTVSGGSIRRGGDYWSWIRQHPGKGLEWIGHVYYEGSTKYNPSFRGRVRISVNTYKNQFSLKLSSVTAADTAVYYCARGYDVSGYSYYYYGLDVWGQGTTVTVSS VL: not shown",2.1,1.17,1.09,1.76
"LIBC673982-1 (Fab on yeast) (Fab, V domains shown, Clone of the Fab-yeast libraries) VH: QVQLQESGPGLVKPSQTLSLTCTVSGGSIRRGGDYWSWIRQHPGKGLEWIGHIYYTGSTTYNPSFRGRVRISVNTYKNQFSLKLSSVTAADTAVYYCARDYDISGYSYYYYGMDVWGQGTTVTVSS VL: not shown",2.16,1.24,0.6,0.78
"LIBC674216-1 (Fab on yeast) (Fab, V domains shown, Clone of the Fab-yeast libraries) VH: QVQLQESGPGLVKPSQTLSLTCTVSGGSIRRGGDYWSWIRQHPGKGLEWIGHIYYTGQTAYNPSLRNRVRISVNTYKNQFSLKLSSVTAADTAVYYCARGYDISGYSYYYYGLDVWGQGTTVTVSS VL: not shown",1.96,1.1,0.65,1.66
"LIBC673948-1 (Fab on yeast) (Fab, V domains shown, Clone of the Fab-yeast libraries) VH: QVQLQESGPGLVKPSQTLSLTCTVSGGSIRRGGDYWSWIRQHPGKGLEWIGHIYYTGSTKYNPSLKNRVRISVNTYKNQFSLKLSSVTAADTAVYYCARGYDVSGYSYYYYGLDVWGQGTTVTVSS VL: not shown",2.46,1.37,0.48,0.64
"LIBC674229-1 (Fab on yeast) (Fab, V domains shown, Clone of the Fab-yeast libraries) VH: QVQLQESGPGLVKPSQTLSLTCTVSGGSIRRGGDYWSWIRQHPGKGLEWIGHIYQTGQTKYNPSFKGRVRISVNTYKNQFSLKLSSVTAADTAVYYCARGYDVSGYSYYYYGMDVWGQGTTVTVSS VL: DIVMTQSPLSLPVTPGEPASISCRSSQSLLHRSGYNYLDWYLQKPGQSPQLLIYQGSNRASGVPDRFSGSGSGTDFTLKISRVEAEDVGVYYCMQSLQTPRTFGQGTKVEIKR",3.17,1.11,0.75,2.22
"LIBC674002-1 (Fab on yeast) (Fab, V domains shown, Clone of the Fab-yeast libraries) VH: QVQLQESGPGLVKPSQTLSLTCTVSGGSIRRGGDYWSWIRQHPGKGLEWIGHIYYKGSTEYNPSLRGRVRISVNTYKNQFSLKLSSVTAADTAVYYCARGYDVSGYSYYYYGLDVWGQGTTVTVSS VL: not shown",2.59,1.49,0.03,0.46
"LIBC674200-1 (Fab on yeast) (Fab, V domains shown, Original clone of the Fab-yeast libraries, without the LC G76D reversion) VH: QVQLQESGPGLVKPSQTLSLTCTVSGGSIRRGGDYWSWIRQHPGKGLEWIGHVYYTGQTAYNPNFRNRVRISVNTYKNQFSLKLSSVTAADTAVYYCARGYDVSGYSYYYYGMDVWGQGTTVTVSS VL: DIVMTQSPLSLPVTPGEPASISCRSSQSLLHRSGYNYLDWYLQKPGQSPQLLIYLGSNRASGVPGRFSGSGSGTDFTLKISRVEAEDVGVYYCMQSLQTPRTFGQGTKVEIKR",3.31,1.33,0.74,2.08
"LIBC529593-1 (Fab) (Fab, V domains shown) VH: QVQLQESGPGLVKPSQTLSLTCTVSGGSIRRGGDYWSWIRQHPGKGLEWIGHIYYSGSTNYNPSLRSRVRISVDTSKNQFSLKLSSVTAADTAVYYCARDYDILTGYSYYYYGLDVWGQGTTVTVSS VL: not shown",1.06,1.42,1.14,0.38
"LIBC673952-1 (Fab on yeast) (Fab, V domains shown, Clone of the Fab-yeast libraries) VH: QVQLQESGPGLVKPSQTLSLTCTVSGGSIRRGGDYWSWIRQHPGKGLEWIGHVYYTGQTTYNPSFRGRVTISVNTYKNQFSLKLSSVTAADTAVYYCARDYDILTGYSYYYYGLDVWGQGTTVTVSS VL: DIVMTQSPLSLPVTPGEPASISCRSSQSLLHRSGYNYLDWYLQKPGQSPQLLIYQGSNRASGVPDRFSGSGSGTDFTLKISRVEAEDVGVYYCRQARALPRTFGQGTKVEIKR",1.91,1.23,0.62,0.77

# — US20250277029A1 (Amgen, published 2025)
